The record followed here is paper PMC6657595, “A DNA-Binding Protein Tunes Septum Placement during Bacillus subtilis Sporulation”.

Common to all, as to assay: EMSA
Common to all, as to conditions: 150 mM KCl, 10 mM Tris-HCl pH 8.0; EMSA 10 nM DNA, 30 min, gel at room temperature; BLI 800 nM protein, 30 C

Series [1] has as its target T1, RefZ E117D-His6 E117D (Bacillus subtilis 168) (UniProt O34970).
T1 sequence: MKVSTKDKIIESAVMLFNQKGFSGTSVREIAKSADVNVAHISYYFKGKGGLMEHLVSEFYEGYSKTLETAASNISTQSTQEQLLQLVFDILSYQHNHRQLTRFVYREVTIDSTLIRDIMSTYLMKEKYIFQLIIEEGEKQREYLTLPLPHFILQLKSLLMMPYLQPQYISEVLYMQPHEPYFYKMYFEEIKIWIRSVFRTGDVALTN

Series [2] addresses T2, RefZ E117G-His6 E117G (Bacillus subtilis 168) (UniProt O34970).
T2 sequence: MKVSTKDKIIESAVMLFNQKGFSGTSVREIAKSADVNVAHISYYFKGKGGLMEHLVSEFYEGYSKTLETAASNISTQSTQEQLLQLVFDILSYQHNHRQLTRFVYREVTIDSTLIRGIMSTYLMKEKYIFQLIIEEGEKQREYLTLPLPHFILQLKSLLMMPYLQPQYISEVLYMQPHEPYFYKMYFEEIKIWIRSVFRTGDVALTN

The target in series [3] is T3, RefZ E179K-His6 E179K (Bacillus subtilis 168) (UniProt O34970).
T3 sequence: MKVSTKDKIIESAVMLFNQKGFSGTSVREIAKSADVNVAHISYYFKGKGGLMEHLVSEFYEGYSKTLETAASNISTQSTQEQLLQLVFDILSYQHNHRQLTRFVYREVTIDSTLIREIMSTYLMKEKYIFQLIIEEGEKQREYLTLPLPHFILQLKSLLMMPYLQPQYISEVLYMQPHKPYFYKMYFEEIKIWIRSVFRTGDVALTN

In series [4] the target is T4, RefZ E53K-His6 E53K (Bacillus subtilis 168) (UniProt O34970).
T4 sequence: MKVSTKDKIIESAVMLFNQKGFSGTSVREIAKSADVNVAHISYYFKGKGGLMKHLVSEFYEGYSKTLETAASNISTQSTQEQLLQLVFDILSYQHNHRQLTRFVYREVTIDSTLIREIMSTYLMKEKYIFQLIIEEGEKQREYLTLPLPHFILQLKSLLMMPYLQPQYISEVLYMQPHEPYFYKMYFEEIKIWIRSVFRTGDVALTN

In series [5] the target is T5, RefZ E61K-His6 E61K (Bacillus subtilis 168) (UniProt O34970).
T5 sequence: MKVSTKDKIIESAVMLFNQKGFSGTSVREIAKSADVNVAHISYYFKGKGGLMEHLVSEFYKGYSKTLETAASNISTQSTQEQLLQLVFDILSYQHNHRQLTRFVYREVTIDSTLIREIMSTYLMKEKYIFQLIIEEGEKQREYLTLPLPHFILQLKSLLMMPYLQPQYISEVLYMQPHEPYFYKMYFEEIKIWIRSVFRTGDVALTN

For series [6], the target named is T6, RefZ L153R-His6 L153R (Bacillus subtilis 168) (UniProt O34970).
T6 sequence: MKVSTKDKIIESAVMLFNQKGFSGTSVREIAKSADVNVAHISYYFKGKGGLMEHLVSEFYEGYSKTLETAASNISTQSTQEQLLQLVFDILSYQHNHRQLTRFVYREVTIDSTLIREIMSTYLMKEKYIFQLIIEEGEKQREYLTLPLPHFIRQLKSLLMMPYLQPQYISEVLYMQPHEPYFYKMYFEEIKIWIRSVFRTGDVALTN

Series [7] has as its target T7, RefZ R102C-His6 R102C (Bacillus subtilis 168) (UniProt O34970).
T7 sequence: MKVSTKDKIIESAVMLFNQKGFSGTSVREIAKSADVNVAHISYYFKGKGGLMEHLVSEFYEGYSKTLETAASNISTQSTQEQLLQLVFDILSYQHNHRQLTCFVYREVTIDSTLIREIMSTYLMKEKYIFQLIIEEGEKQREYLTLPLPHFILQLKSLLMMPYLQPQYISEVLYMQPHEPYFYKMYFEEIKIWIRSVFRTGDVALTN

Series [8] has as its target T8, RefZ R102S-His6 R102S (Bacillus subtilis 168) (UniProt O34970).
T8 sequence: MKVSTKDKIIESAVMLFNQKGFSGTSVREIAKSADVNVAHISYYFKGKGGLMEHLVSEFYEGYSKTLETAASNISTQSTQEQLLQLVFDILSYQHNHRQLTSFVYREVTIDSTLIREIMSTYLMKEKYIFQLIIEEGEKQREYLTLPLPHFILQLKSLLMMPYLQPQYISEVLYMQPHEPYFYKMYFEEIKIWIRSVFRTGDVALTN

Series [9] deals with T9, RefZ R116S-His6 R116S (Bacillus subtilis 168) (UniProt O34970).
T9 sequence: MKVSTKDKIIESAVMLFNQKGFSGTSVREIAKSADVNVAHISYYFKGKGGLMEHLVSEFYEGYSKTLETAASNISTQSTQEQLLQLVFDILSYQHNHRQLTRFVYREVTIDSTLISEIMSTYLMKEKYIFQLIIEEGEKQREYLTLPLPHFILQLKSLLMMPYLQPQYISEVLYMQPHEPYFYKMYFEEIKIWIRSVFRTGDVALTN

The target of series [10] is T10, RefZ R116W-His6 R116W (Bacillus subtilis 168) (UniProt O34970).
T10 sequence: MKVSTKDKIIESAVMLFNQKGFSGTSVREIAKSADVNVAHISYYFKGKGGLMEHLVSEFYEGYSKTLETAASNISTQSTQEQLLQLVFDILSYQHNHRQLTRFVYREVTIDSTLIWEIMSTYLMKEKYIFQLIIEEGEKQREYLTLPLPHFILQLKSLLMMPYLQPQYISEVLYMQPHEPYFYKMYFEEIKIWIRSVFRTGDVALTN

Series [11] concerns the target T11, RefZ-His6 (WT) (Bacillus subtilis PY79) (UniProt O34970).
T11 sequence: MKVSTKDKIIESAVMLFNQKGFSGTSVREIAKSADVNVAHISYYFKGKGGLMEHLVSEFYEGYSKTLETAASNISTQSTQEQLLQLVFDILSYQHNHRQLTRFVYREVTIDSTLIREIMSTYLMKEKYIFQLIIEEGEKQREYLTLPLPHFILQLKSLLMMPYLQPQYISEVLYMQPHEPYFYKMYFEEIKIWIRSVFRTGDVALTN

Regarding “ATCAGCGCTCTGGTGATTGCAAGCTGCTGCTGTTGACCGCCTTTTCGTTTTGAACAAACGTTTGATTAAAACAAATAGCCCCCTCTGTTTAGCCGGAGTCGGCCTAATACAGCGACAATCTGCCCCGGGCGAAGCTAAGGCTGTGCAAAA (double strand) [RBML1 150-bp probe]”, the binding result in [1] is on record as “binds”; in [2] it was “binds”; in [3], “binds”; in series [4], “binds”; in series [5], “binds”; in [6], “binds more weakly”. Further, the binding entry in series [7], in series [8], in [9], in [10] and in series [11] was “binds” each time.
